Test results: article PMC4738280, “Transthyretin participates in beta-amyloid transport from the brain to the liver- involvement of the low-density lipoprotein receptor-related protein 1?” (Scientific Reports, 2016)

Experiments:
Type in all cases: cell-based, human
hCMEC/D3 cells [1] = assay: FAM-Aβ1-42 uptake by hCMEC/D3 cells, flow cytometry; details: hCMEC/D3, FAM-Aβ1-42 500 ng/mL (100 nM), 37 °C
Description: For quantification of Aβ1-42 uptake, hCMEC/D3 cells were plated into a 6-well plate coated with collagen type I and grown to confluence. Cells were washed with PBS and incubated for 5, 10, 15 and 30 minutes at 37 °C, with 500 ng/mL of FAM-Aβ1-42 (100 nM) in presence or absence of h rTTR (7.5 μg/mL, 136 nM). After incubation, cells were washed twice with PBS and enzymatically detached using trypsin (Gibco™), and then resuspended cells were centrifuged at 1000 rpm at RT for 5 minutes. The pellet was washed with PBS and cells recentrifuged as described above. Then the pellet was resuspended with PBS, and if necessary fixed with 4% Paraformaldehyde (PFA). Finally, cells were analyzed in FACS Canto II equipment (BD Biosciences) using Blue laser excitation of 488 nm. The flow cytometry data were analyzed using the Flowjo workstation.

SAHep cells = assay: FAM-Aβ1-42 internalization by SAHep cells, flow cytometry; details: FAM-Aβ1-42, 4.5–7.5 μg/mL of h rTTR, 3 hours, 37 °C, N = 3
Description: For the study with hepatocytes, SAHep cells were grown in 6-well plates coated with collagen type I and after 24 hours cells were incubated with FAM-Aβ1-42 in the presence or absence of h rTTR (136 nM) for 3 hours at 37 °C. For primary hepatocytes, after 48 hours of seeding, cells were incubated with FAM-Aβ1-42 (100 nM), with the advantage of no need for TTR addition. For hepatocytes derived from TTR−/− mice, we also examined the effect of h rTTR on FAM-Aβ1-42 internalization. FAM-Aβ1-42 inside SAHep cells and primary hepatocytes was measured by flow cytometry (FACS Canto II, BD Biosciences).

hCMEC/D3 cells [2] = assay: FAM-Aβ1-42 efflux from hCMEC/D3 cells, flow cytometry; details: hCMEC/D3, 10 min loading with FAM-Aβ1-42, then 20 min in FAM-Aβ1-42-free media, 37 °C, mean of N = 3
Description: For efflux studies, hCMEC/D3 cells were initially incubated with FAM-Aβ1-42 for 10 minutes and then the media was removed and replaced with FAM-Aβ1-42 -free media, and further incubated for 10 and 20 minutes, at 37 °C. Finally, cells were analyzed by flow cytometry, as described above.

FAM-Aβ1-42: Aβ1-42 labeled with 5-(and-6)-Carboxyfluorescenin (FAM), purchased from AnaSpec
FAM-Aβ1-42 uptake, fluorescent cells (hCMEC/D3 cells [1]; 5 min, absence and presence of h rTTR 7.5 μg/mL (136 nM), N = 3): 35–39%
FAM-Aβ1-42 uptake, fluorescent cells (hCMEC/D3 cells [1]; 10 min, absence and presence of h rTTR 7.5 μg/mL, difference not significant, N = 3): over 57%
FAM-Aβ1-42 uptake, fluorescent cells (hCMEC/D3 cells [1]; 15 min, absence of TTR, mean of N = 3): 61.7%
FAM-Aβ1-42 uptake, fluorescent cells (hCMEC/D3 cells [1]; 15 min, presence of h rTTR 7.5 μg/mL (136 nM), mean of N = 3): about 73%
FAM-Aβ1-42 internalization with versus without TTR (hCMEC/D3 cells [1]; 30 min, h rTTR 7.5 μg/mL versus none, N = 3): significantly higher in the presence of TTR
Uptake of Aβ1-42 peptide by SAHep cells, maximum (SAHep cells): 70%
FAM-Aβ1-42 efflux, fluorescent cells remaining (hCMEC/D3 cells [2]; absence of TTR): 67.6%
FAM-Aβ1-42 efflux, fluorescent cells remaining (hCMEC/D3 cells [2]; presence of h rTTR): 45.5%
